This is an account of results in a protein production outcome set (Wang et al. 2014).

The series can be described thus: label from the status in PepcDB records.
As to “MLTGNKPAVQRRFIGLLMLSVLVAGCSSNPLANFAPGYPPTIEPAQPAVSPPTSQDPAGAVRPLSGHPRAALFDNGTRQLVALRPGADSAAPASIMVFDDVHVAPRVIFLPGPAAALTSDDHGTAFLAARGGYFVADLSSGHTARVNVADAAHTDFTAIARRSDGKLVLGSADGAVYTLAKNPAVDPASGAATVASRTKIFARVDALVTQGNTTVVLDRGQTSVTTIGADGHAQQALRAGQGATTMAADPLGRVLIADTRGGQLLVYGVDPLILRQAYPVRQAPYGLAGSRELAWVSQTASNTVIGYDLTTGIPVEKVRYPTVQQPNSLAFDETSDTLYVVSGSGAGSRFIEHAAGTR”, the protein production result is given as “failed”.

Turning to “MKNSFLCVGSFLLAASFFTSCTEDKDWSGGLKNSDLVFQTYLPTEGAKGTELSIRGNNFGEDISQVQVWVNEKEAEVISVTSTRIMARVAEASGSGVVKVRVGEVVYSYPDLFSYGYIRNVYTVAGNGQGTTVDGAYLQASVQWPIVMVYDKWDDAILFLQDEGEHRIRRMKDGKIETLCSTKSLVNNARSICFSLDGDTLFIGNDNANNYVANPVAVGMVTRKGGFKDLKSYIPSEKLAQPHINGIAVNPVDGSLFTYHWGRHVFRYNKATETCEYVITRDQFNELVVGLFPDADGNMQNIGGDGGYGGLAFSPDGKTLYWNGRDPYQGILKADYDLVTKKCTNLTRFAGNGVWGIIDGQGVSSRMDQPNQIAVDAEGNLLVTTVYGRTVRKITPEGYVSTYAGIGYQTGYVDGLAAEAKFNKPYGIAIDAQGNVYVGDCENWRIRVIKEE”, the protein production result is recorded as “failed”.

Consider “MEGFGMPKLIISGRGGSGKSTLVTLIAHTLKEQKKRVLVVDSDESNIGLSGILGIEPAEKTLMDYLGGKPRVMKKLRSMIRDGETEPELFREKFDLESLSQEFVCWVGSLGLMQIGKIDHAMEGCACPMGAVTRDFLNHVRLEEDQWVLVDTEAGVEHFGRGIVEGADAVVMVVDPSSDAVLLAEKAAKLTHEADKRFGVILNKIDEETEPILTELLTSEGNEIKGVLPYSPAITKMNLKGESLGAYAVKNEVDEIIRELMKCLEHHHHHH”, for which the protein production entry is given as “failed”.

In the case of “APGTLVLAGTPIGDITDAPPRLAQELAGADVVAAEDTRRLRRLTQALGVQPAGRVVSYFEGNEAARTPELVEALLDGSRVLLVTDAGMPSVSDPGYRLVAAAVAKDIRVTAVPGPS”, the protein production entry is reported as “failed”.

Consider “MSEPYGKAFSLMRAEAEPAWRAYTHHAFVEGLKAGTLPREAFLHYLQQDYVFLIHFSRAWALAVVKSETHSEMLAAVGTVNALVAEEMQLHIGICEASGISQEALFATRERAENLAYTRFVLEAGYSGDLLDLLAALAPCVMGYGEIGKRLTAEATSTLYGDWIDTYGGDDYQAACKAVGTLLDDALERRLGAEFTSSPRWSRLCQTFHTATELEVGFWQMGLTP”, for which the protein production entry is given as “not failed”.

For the sequence “SKAWLHQYSVVGRKIPTQEEPEPPIYRLKIFAPNVVNAKSRFWYFLRKLKRVKKSSGEILNISEIFEKKSTQVKNYGIWIRYKSRSDTINMYREYRDVTVNGAVEQMYKDMSGRHRARWSSIWVLKAMPVAAKDCRRSKVTQFHDSKIKFALPHMRPRAPLKKYNTPFKAKRPTTIVQ”, the protein production result is on record as “not failed”.

For the sequence “MSQFTPHFTYRNVALALLVSTVLNGCATKGFRDADDQAERDIRTAEQLHGLSLKQPSSPSLVWVDEPWVNPRPIRVSARAQQVKLPPCSLTLIIDGSLSLYEVGQRITRSCGFPVVITPDAMSALSGSASQGGVGATRAIQGALPRPDEGGRPALGSIGGVTSTQSFSPNIGAGLITDISWEGEPLGGALDQITSRLGLNWKFENNQVVLYYLDTRTYRLKVLNAETAMNSNLTGTSSSTAGGDSSSVSGSQNSGQSTSVKLESKIHNDIGQSIKSMVSSSGSWHLSGSTGELVVTDVPQVLDRVESYIDSLNVRMNRMVKLMVSVYSVQRKGSSQTSLDWSVVGKRLDRFGLTLAGTPTATTAVSSAGINVVDGKFAGTTALFRALETQGKVSVVMAHEATTTNLVPAPFQIAGQMVYLRSQKTSVSENYATTDMEPGSITTGTQMTLLPDIRDEGDIQLQFNFSHSDPAQLRKESSKDGNTKMEMPYTTVRSLSERVNLKPGQTLIVSGYNSRNLTASREGAFDPDVTVAGGGKSSETDDVTLIIAVTPVLM”, the protein production result is on record as “failed”.

Regarding “MKARLLIVVAVLALTACATTTSPTGRRQVVGGVSQQQLDQLGAQSFAQTKAKEKVSTDGKQNAYVQCVVNALVAQLPPQWRETKWETALFVDNEANAFALPGGKVGVNTGIFTVAKTQDQLAAVLGHEIGHVISRHHEERITRQLGAQTGLGIIGALAGAAYGDGAASAVNQVGGMTAQTVFLLPGSRTQESEADVVGQRLMAQAGFDPAQAVTLWQNMMAASGNRQPQWLSTHPDPANRIRELQADVAQLEPVYQQAKQSGRAPRCG”, the protein production result is “failed”.

Consider “MLPFANYYISSPSVSEKNAINNNVNKRRKKKRAMMVYGGGGGGDDLAVVKAAAWAWYLRKEGKPIMREFDVTRAQRIPRPSRYKIEATKNMILSENRVLAENRVSSTKSPLWYTNYQFRGDQETYYSRLLDTYETKNISKRLNIDDSSFSTSLSSVLKHNGDDHHNHNRNDDYGFDDHGLLKKRNGSDSNTTTRSKTNNDKSYNGGFMKKVSKRSLWKGMIVMGPGSTVCGRSDDVASQAGRRTVKVAVAAEALVRSAASGSGKTQSGHC”, for which the protein production entry is “failed”.

As for “MYFCGIQNSTRTKGMNKAKSTMKLFGLIGLLILWNCSCVDRHRSHALCEQSLIDSLEVRAQDSLFSNLPYSRSLLRNAMRQAQDSMSYYRLMGLYGKTFFISSDFDSILYYNRPVKEYDKRAAACPRWNDVLSDVYNIEGNVWMQLNQPDSAVAYYEKSYAYRLKGEKGHLLSDICMNLADAHLHRGELAHTASYYRKALFICDSLHLSEHSKFPVYCGLGQTYMDLRDFDLSNHYYELAGQFFDEMTVSEKWVYLNNRGNHYYYKKDYQEALVYMRQAAELIADYPQMVFESNLSKVNLGDLYLLTNRLDSAENNLNEGYRYFSEIKNNSAMHYIETLMIELFLKKGNIARAREMIARTASTGHVDANMLTIRNQYLQHYYEKAGDYRNAYEYLKRDYQLNDSIRSERIRTRVAELDMRYRQDTIVLRKEMQIQRQAGEVRVLKLSMYIWVLVCLLLAAGTVVIIWYMRKKREFLRERFFQQINRVRMENLRSRISPHFTFNVLGREINQFNGSEEVKNNLMELVKYLRRSLELTEKLSVSLQDELDFVQSYIGLESGRVGEDFTASVVVEEGLDAKSIMIPSMIVQIPVENAIKHGLAGKDGEKELTIRISREGKGVRIVICDNGRGYLPQVASSTRGTGTGLKVLYQTIQLLNTKNKNEKIRFNIGNRNDGQTGTQVSVYIPFHFSYDL”, the protein production result is on record as “failed”.

Take “MIRDVNDNKKKKVDEILSIVKVSSLLFSAMAFLQYTFNLTKYNNKFLAYYSILSILISIFLLSTIYILWSLASLNKYKDHINKIQLIEIILFMIIFIMAILVSGGNSSNNKFLFLFIIITSTIQGGMHRGCVVSVVSSAIILAIDLIFSGNADVNIYFQNDLILAGVFVLTAWTLGFYVKTENDHIKELQTLVNEDGLTGVYNHRYFYDKLREKMHISEVENEKLSLIFMDIDYFKHYNDLYGHQKGDEALKKIGKLLKNIARENDLVARYGGEEFAIILPNTSEEEATKIAERIRNKVEKTYFEGQENQPNANFTVSVGIAVFPDKAKSELELVKCADDALYRAKFFHKNRVETYVSVLDELKRDLNEEENALVASIKTLISIINAKDKYTYSHVERVVIYSRLMAKKLGLSEDEKKQLIYGAYMHDIGKINIPNEILTKKMRLTKEEWEILKQHPKDGVEIIKSVNSLKNVVPLILYHHERYDGFGYPVGLKEKEIPYLARVLTVIDSFDAMTSSRPYNKRKTYDEGLIELERCSGTQFDPEIVGIFSEVVKENINEIQDF”: the protein production entry is “failed”.

On to “MSSPGGGTRFALVAGTTETAGRAGISAAGADPELMSVTPAADAELVTYGTPVRTDVTPVSPSGCPTPALVTRAAREVLGFDVTVVDGGLAEKTGAPTVSVGARPGKDIAEQDPVSTAHGAFAAARQFGQSLPADELYLGETIPGGTTTALGVLRALGEDGMVSSSLPENPTAQKSEVVAEGLQASSLEPGDAANEPKRAVRRMGDPVLATLAGLTAGAVESDTAVTLAGGSQCVAVAALVRHGGYEGPLGLATTSYVADDESADVRASVDRLDLDLTVTDPGFDRSDHVAMERFVAGEAKEGVGMGGALALAD”, for which the protein production entry was “not failed”.

In the case of “MTIKVFSPKYPTELEEFYAERIADNPLGFIQRLDLLPSISGFVQKLREHGGEFFEMREGNKLIGICGLNPINQTEAELCKFHINSAYQSQGLGQKLYESVEKYAFIKGYTKISLHVSKSQIKACNLYQKLGFVHIKEEDCVVELGEETLIFPTLFMEKIL”, the protein production entry is listed as “failed”.

As to “MKEELFKEKSRYITGFVLIIVADLILYADNLLLFWAVLGGIYAVGFSEALRLFQVKASFSLYLILVLSWVAAYFNGRPIECALISAMVMASVIAYQKAHHSEAILPFLYPGVGFFALFGVYKDFGAVAIIWLLVVVVASDVGAFFGGKLLGKTPFTPTSPNKTLEGALIGVVLASVLGSFVGMGKLSGGFFMALFFSFLIALVAVFGDLYESYLKRKVGIKDSGKILPGHGGVLDRLDSMLFGALGLHALLYFLEIWKETAVFLGD”, the protein production entry was “failed”.

In the case of “MEPTGLMVAAPTASLPEAIGGERNWDYRFTWIRDTAYVIEALSSIGYKYEATEFLYDMMDMITRDNRIRTIYSIDDSNDLEERIIDYEGYRGSRPVRIGNKAVDQLQIDQYGSIVRAIHSMAKAGGIVNSYLWDFVEQVMAKIEYLWKYPDSSIWEFRTEPKQYVYSKVMSWAAFDSAISMAKDLGLSAPIKQWKSIQDEIKKEVLEKGFDTDTNSFVQYYGSKNIDAALLRLPILGFIPANDEKFLGTLSRIEKELMVDGYLFKRYREDDGLKGDEGSFLMLTFWYIEDLILMKRLKKAREVLESVLEKANHLGLYSEEIDEKSGDFLGNFPQALSHLGVIRVAPKLEEALLLEHHHHHH”, the protein production result is “failed”.

Consider “MTAVGADAPKPGAPIKEPRFGFLRRTYAMLVKELIQLKRDRLTFAMIIVIPVMQLLLFGYAINTTPRHLPTAVLLQEDSDLGRSILKALENTAYFKFTREVHSVAEFDDLLLSGRVLFGVEIPRGFERAVRRGEKPAILVAADATDPVAAGSALSALGQIVQTALMHDRVGGDPANPPFEIRAHARYNPAASSRLNIVPGLVGTILTMTMLIFTALSVTREIERGTMENLLSMPITPVEVMLGKILPYVGVGFIQASLILGIGVLLFGVPLRGSLAMLALLSTLFITTNLAIGYTFSTLVQNQLQAMQASMMFFLPSILLSGFMFPFAGMPIWAQYIGECLPLTHYLRIVRAIMLKGSTLENLQYDAVALLTLMLIAMTIAVTRFRRTLD”, for which the protein production result was “failed”.

As for “RAKALQKVKEAITLHGGQTILSTGITGDDARLAKAVCEAGVKLLEPNHPALALARGHKGVSNMHAAEQIRHEITNSQMAEAVHGVRNVVPDDIFITVGIAGGFTETLPVPLSEKEILEIARAGADGLHTHKSDWDDLQDIVNLAHQYGLTVDAYIGHPDDLHTFGIPARTPEEVASVAKRMQDIGVDMIGLMTGMSYEGVAAGDIPQMIKDRLRALVGAVDVPTLAEGGINLANAKAFKDTGVNILVVGTAI”, the protein production result is “failed”.

On to “MTPIHVVGIGLDGLPGLAAAVQQIIDSATLLVGSDRHLQLIPQGDTPRLSLGNFNASLKAIQTHLDTTANPQVVILTSGDPLFYGLGRWLLEVFAPDQLTFHPHLSAVQLAFSRLKLPWQDAVIYSAHGRDLAGLVPLLQRGVEKIAIYTDGEANIAAISRLYQALHIPVTYRAWVCQALGSAEEAILPWDLAQPVTALPPVHPLNLVVLLRQPQRLPPREQPIVGLGDDQFFTFADRPSLMTKREVRVLVLAELALTSTVEIVWDIGAGTGSVAVEIARLAPQATIYAIEKTAIGFQLIERNRRAFGLANLIPLQGTAPQCLRDLPPPDRVFIGGSGAQLLANLDYCWSHLNAGGRLVLAIATLEHQGQVLHWCQTHQINPQVLQVQLSRSVP”, for which the protein production result is “failed”.
